Blank lines part the entries; values can stand above or below the binder they belong to.
Legend:
[1] = target: T1, recombinant dimeric human G6b-B (human, UniProt O95866 18-142, limits assumed); test: Fab as analyte over a G6b-B dimer channel (RU read-out; method not named), two stage reaction model
T1 construct: also called G6b-B dimer; dimeric G6b-B
T1 sequence (looked up): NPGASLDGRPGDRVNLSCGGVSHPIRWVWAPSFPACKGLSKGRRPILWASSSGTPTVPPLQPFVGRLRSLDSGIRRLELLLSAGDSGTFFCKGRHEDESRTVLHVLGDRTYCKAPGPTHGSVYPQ

[2] = target: T2, recombinant monomeric human G6b-B (human, UniProt O95866 18-142, limits assumed); test: Fab as analyte over a G6b-B monomer channel (RU read-out; method not named), two stage reaction model
T2 construct: also called G6b-B monomer; monomeric G6b-B
T2 sequence (looked up): T1 sequence (looked up)

mouse G6b-B = target: T3, mouse G6b-B (mouse, UniProt D7PDD4 18-140, limits assumed); test: plate binding assay (coated protein, HRP anti-mouse IgG, TMB, A450), FIG. 8
T3 construct: construct not described
T3 sequence (looked up): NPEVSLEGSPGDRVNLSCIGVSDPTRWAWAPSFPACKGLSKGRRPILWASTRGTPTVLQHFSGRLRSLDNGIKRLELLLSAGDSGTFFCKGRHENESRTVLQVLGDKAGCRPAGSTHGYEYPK
Experimental: FIG. 8—illustrates that the 17-4 antibody robustly binds to recombinant monomeric and dimeric human G6b-B, but not to mouse G6b-B in an in vitro binding assay. Wells of 96-well plate were coated with the indicated proteins overnight. Following blocking, wells were incubated with the indicated anti-G6b monoclonal antibodies (10 μg/ml) or IgG control. Antibody binding was detected with HRP-conjugated anti-mouse antibody and 3,3,5,5-tetramethylbenzidine (TMB) substrate; absorbance was measured with a plate reader at 450 nm.
Wells of 96-well Nunc MaxiSorp™ plates (Thermo Scientific) were coated overnight with 50 μl of indicated proteins, diluted in PBS at a concentration of 5 μg/ml. Plates were washed three times with Tris buffered saline (TBS) containing 0.1% Tween 20 (TBS-T) and blocked for 1.5 h at 37° C. with 2% fat free milk in TBS, 0.02% Tween 20. After one washing step, wells were incubated with the indicated anti-G6b monoclonal antibodies (10 μg/ml) or IgG control, diluted in 3% BSA in TBS-T for 1.5 h at RT. After five washing steps, wells were incubated with HRP-conjugated anti-mouse IgG antibody (Sigma) for 1 h at RT at low agitation. Plates were washed seven times and signals were developed with TMB. The reaction was stopped by addition of 2 M H₂SO₄ (50 μl/well) and absorbance at 450 nm and 570 nm (background) was measured with a Versa max plate reader (Molecular Devices).

[3] = target: the molecule itself; test: X-ray crystal structure; dimer believed to result from binding of the heparin oligosaccharide DP12
Experimental: The preformed G6b-B:Fab complex at 12 mg/ml, in a buffer solution of 20 mM HEPES, 75 mM NaCl, pH 7.1 was incubated for 1 hour at 4° C. with 2 mM DP12 (Iduron Cat. No. HO12). This protein sample was then microfuged at 16,000 g, for 10 minutes at 4° C., before drops were set up using 150 nl sample and 100 nl reservoir solution. Reservoir conditions were 50 mM MES pH6.2, 10% PEG 550MME, 5% glycerol, and 50 mM CaCl₂. Crystallisation plates were incubated at 20° C. and flat plate crystals appeared within 3 days. The crystal was harvested straight out of the growth drop into liquid nitrogen. Diffraction data were collected at 100K on beamline 103 at Diamond Light Source and processed by XDS1 and Aimless2 via AutoPROC3. The crystal had the space group C2 with the cell dimensions of a=183.80, b=72.34, c=131.04, alpha=90.0°, beta=124.52°, gamma=90.0°, and gave a 97% complete dataset to 3.1 Å.

Kd [1]: 0.262 nM
Kd [2]: 0.126 nM
B1: His-tagged recombinant anti-G6b-B Fab fragment of antibody 17-4 (Fab, V domains shown)
VH: EVQLQQSGAELVKPGASVKLSCTASGFNIKETYIHWVKQRPEQGLEWIGRIDPADVYGRYDPKFQGKATITADTSSNSAYLQVSSLTSEDTAVYYCARSYGSSYGIDYWGQGTSVTVSS
VL: DIQMTQTTSSLSASLGDRVTISCRASQDISNYLNWYQQKPDGTVKLLIYYTSTLHSGVPSRFSGSGSGTDYSLTISNLEQEDVATYFCQQGYTLPWTFGGGTKLEIKR
notes: also called 17-4 Fab; 17-4 Fabs

binding result (mouse G6b-B): no binding (tested: 10 µg/ml)
B2: anti-G6b mouse monoclonal antibody 17-4 (antibody, mouse IgG1, kappa, V domains shown)
VH: B1 VH
VL: B1 VL
notes: The entries may include leader peptides, since VH CDR2 residues are numbered 69 and 71; no cleavage site is stated; also called exemplary antibody 17-4; mAb 17-4

B3: G6b-B ECD (18-133, [N32D, S67A, S68A, S69A, T71A]) (receptor, human, UniProt O95866 18-133, looked up)
chain: NPGASLDGRPGDRVDLSCGGVSHPIRWVWAPSFPACKGLSKGRRPILWAAAAGAPTVPPLQPFVGRLRSLDSGIRRLELLLSAGDSGTFFCKGRHEDESRTVLHVLGDRTYCKAPG
notes: Expressed in HEK293 6E cells and used for the crystal structure with the 17-4 Fab and the heparin oligosaccharide DP12; also called G6b ECD; G6b-ECD
binding result [3]: binds
